Measurements published in patent US20160289285A1 (Molecular Partners, published 2016).
Where “and” joins values, the source holds several entries; their conditions need not be identical. Identical values can stand only once. Like-named read-outs stand apart in the source and are kept apart here.

B1: human VEGF-A (ligand, UniProt P15692-4 27-191, looked up)
chain: APMAEGGGQNHHEVVKFMDVYQRSYCHPIETLVDIFQEYPDEIEYIFKPSCVPLMRCGGCCNDEGLECVPTEESNITMQIMRIKPHQGQHIGEMSFLQHNKCECRPKKDRARQENPCGPCSERRKHLFVQDPQTCKCSCKNTDSRCKARQLELNERTCRCDKPRR
notes: Recombinant, bought or produced in CHO or Pichia pastoris; also called hVEGF-A

Key:
human HGF [1] = target: T1, human HGF (human, UniProt P14210 32-728); assay: SPR (ProteOn), human HGF immobilised, injection scheme PBST-hVEGF-A-PBST
T1 construct: also called hepatocyte growth factor
Protocol: FIG. 8. SPR analysis of recombinant binding proteins. […] The control injections indicate that no unspecific interaction occurs. RU: resonance units; t: time in seconds.
SPR was measured in a similar way as described in Example 2, with the following setup. 2700 RU human HGF were immobilized on a sensor chip. […] Following this, 100 nM human VEGF-A or PBST were injected for 180 seconds (leading to saturation) followed by a PBST wash of 360 seconds. Finally, 100 nM human serum albumin or PBST were injected for 180 seconds followed by a PBST wash of 600 seconds.

human VEGF-A [2] = target: B1; assay: cell-based or functional assay
human HGF [3] = target: T1, human HGF; assay: cell-based or functional assay
human VEGF-A [4] = target: B1; assay: ELISA, immobilised target
Protocol: (§1) 100 μl or 50 μl of 20 nM target (VEGF-A, HGF, or serum albumin) in PBS per well were immobilized in a Maxisorp plate (Nunc, Denmark) overnight at 4° C. After washing 5 times with 300 μl PBST (PBS supplemented with 0.1% Tween 20), the wells were blocked with 300 μl PBST-C (PBST supplemented with 0.25% casein) for 2 h at room temperature with shaking at 450 rpm on a Titramax 1000 shaker (Heidolph, Germany). […] After washing 5 times as described above, bound anti-designed ankyrin repeat domain antibody was detected using 100 μl or 50 μl/well goat anti-rabbit IgG-HRP conjugate in PBST-C for 1 h at room temperature with shaking at 450 rpm. After washing 5 times as described above, the ELISA was then developed using 100 μl BM soluble blue POD substrate (Roche, Switzerland), diluted 1:4 in water. The reaction was stopped after 5 min using 100 μl 1 M H₂SO₄. The OD (OD 450 nm-OD 620 nm) was then recorded.
(§2) Cynomolgus monkey VEGF-A is identical to human VEGF-A and was thus not tested separately.

mouse serum albumin = mouse serum albumin (mouse, UniProt P07724 25-608); assay: ELISA, immobilised target
Protocol: as §1, §2

rat serum albumin = rat serum albumin (rat, UniProt P02770 25-608); assay: ELISA, immobilised target
Protocol: as §1, §2

dog serum albumin = dog serum albumin (dog, UniProt P49822 25-608); assay: ELISA, immobilised target
Protocol: as §1, §2

mouse VEGF-A = target: T2, mouse VEGF-A (mouse, UniProt Q00731-2 27-190, limits assumed); assay: ELISA, immobilised target
T2 sequence (looked up): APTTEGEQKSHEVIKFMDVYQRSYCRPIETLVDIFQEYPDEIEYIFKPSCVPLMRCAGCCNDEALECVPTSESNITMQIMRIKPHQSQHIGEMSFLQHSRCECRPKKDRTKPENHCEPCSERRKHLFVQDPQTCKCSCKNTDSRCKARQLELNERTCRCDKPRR
Protocol: as §1, §2

rat VEGF-A = target: T3, rat VEGF-A (rat, UniProt P16612-2 27-190, limits assumed); assay: ELISA, immobilised target
T3 sequence (looked up): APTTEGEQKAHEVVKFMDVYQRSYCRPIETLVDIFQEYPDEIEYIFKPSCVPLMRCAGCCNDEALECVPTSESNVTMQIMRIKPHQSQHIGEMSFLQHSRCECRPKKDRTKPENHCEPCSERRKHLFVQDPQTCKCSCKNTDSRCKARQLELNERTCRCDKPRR
Protocol: as §1, §2

human HGF [5] = target: T1, human HGF; assay: ELISA, immobilised target
Protocol: as §1, §2

cynomolgus monkey HGF = cynomolgus monkey HGF (cynomolgus monkey, UniProt C9E9X5 32-728); assay: ELISA, immobilised target
Protocol: as §1, §2

mouse HGF = mouse HGF (mouse, UniProt Q08048 33-728); assay: ELISA, immobilised target
Protocol: as §1, §2

human serum albumin = target: T4, human serum albumin (human, UniProt P02768 25-609); assay: ELISA, immobilised target
T4 construct: For SEC-MALS purified from CSL Behring 20% solution; also called HSA; SA (human)
Protocol: as §1, §2

[6] = target: cynomolgus monkey serum albumin (cynomolgus monkey, UniProt A2V9Z4 25-608); assay: ELISA, immobilised target
Protocol: as §1, §2

human VEGF-A [7] = target: B1; assay: ELISA, immobilised target; remark: listed apart in the source
Human VEGF-C = target: T5, Human VEGF-C (human, UniProt P49767 103-227, limits assumed); assay: ELISA, immobilised target
T5 sequence (looked up): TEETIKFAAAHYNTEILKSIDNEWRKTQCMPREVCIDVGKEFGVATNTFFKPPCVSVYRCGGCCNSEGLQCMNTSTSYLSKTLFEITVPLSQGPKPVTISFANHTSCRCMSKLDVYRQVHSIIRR

Human PDGF-AB = target: T6, Human PDGF-AB (human, UniProt P04085 87-211; P01127 82-190, limits assumed); assay: ELISA, immobilised target
T6 construct: Heterodimer by its name

human HGF [8] = target: T1, human HGF; assay: HGF/cMet competition ELISA as in Example 3
Protocol: (§3) After washing away any unbound substances, an enzyme-linked polyclonal antibody specific for VEGF-A is added to the wells. Following a wash to remove any unbound antibody-enzyme reagent, a substrate solution is added to the wells and color develops in proportion to the amount of VEGF-A bound in the initial step. The color development is stopped and the intensity of the color is measured. […] IC₅₀ values were calculated from such titration curves obtained as described above using Graph Pad Prism software and standard procedures known to the person skilled in the art. For designed ankyrin repeat domains with binding specificity to HGF, a cMet receptor competition assay was performed. For that purpose, 5 nM of human cMet receptor in PBS were immobilized on Maxisorp plates overnight at 4° C. After washing with PBS 0.05% TWEEN 20, the plate was blocked for 2 h with shaking at 300 rpm using PBS containing 0.05% TWEEN 20 and 0.25% Casein at RT. A constant concentration of 5 nM human HGF was pre-incubated for 30 min at RT with a 1000 nM-1 pM of Proteins #23, #26, #28, and #29 (1:4 dilution series each) on a dilution plate in PBS 0.05% TWEEN 20. After washing of the ELISA plate with PBS 0.05% TWEEN, pre-incubated samples were transferred to the ELISA plate and plate was incubated for 2 h at RT with shaking at 300 rpm. […] Readout was done at A450 using A620 as reference wavelength. […]

human VEGF-A [9] = target: B1; assay: VEGF-A competition binding ELISA (FIG. 7C)
Protocol: as §3

[10] = target: biotinylated VEGF-A165 (Reliatech, #300-076Bi-L) (UniProt P15692-4 27-191, biotinylated); assay: VEGF-A/VEGFR-2 competition FRET (HTRF); 10 nM VEGF-R2-Fc, 10 nM biotinylated VEGF-A165
Protocol: Such competition FRET and ELISA assays are well known to the person skilled in the art. […] In parallel, 5 μl of Streptavidin-Tb (streptavidin-Lumi4-terbium cryptate donor, Cisbio #610SATLB) and 5 μl of PAb anti-hIgG-de (D2-conjugated goat anti-Human IgG, Cisbio #61 HFCDAA) were added to 500 μl of PBST-BSA buffer and incubated for 20 minutes (2× reagent). Ten μl/well of 2× reagent were dispensed in a 384-well HTRF white-plate (Thermo Fisher Scientific Inc.) and 5 μl/well of four-time concentration hVEGF-R2-Fc fusion (Reliatech #SFC-008) were added. Five μl of the preincubated competition mixture were then added to wells. The complete reaction mix was incubated in the dark for 1 hour at room temperature before the fluorescence read out using a fluorescence reader. […] The read-out was done for A665 nm and […] wavelength (Excitation 340 nm).

human VEGF-A [11] = target: B1; assay: VEGF-A competition ELISA as in Example 3; competitor: immobilised anti-VEGF-A monoclonal antibody
Protocol: as §3

T1 sequence (P14210 32-728 limits assumed): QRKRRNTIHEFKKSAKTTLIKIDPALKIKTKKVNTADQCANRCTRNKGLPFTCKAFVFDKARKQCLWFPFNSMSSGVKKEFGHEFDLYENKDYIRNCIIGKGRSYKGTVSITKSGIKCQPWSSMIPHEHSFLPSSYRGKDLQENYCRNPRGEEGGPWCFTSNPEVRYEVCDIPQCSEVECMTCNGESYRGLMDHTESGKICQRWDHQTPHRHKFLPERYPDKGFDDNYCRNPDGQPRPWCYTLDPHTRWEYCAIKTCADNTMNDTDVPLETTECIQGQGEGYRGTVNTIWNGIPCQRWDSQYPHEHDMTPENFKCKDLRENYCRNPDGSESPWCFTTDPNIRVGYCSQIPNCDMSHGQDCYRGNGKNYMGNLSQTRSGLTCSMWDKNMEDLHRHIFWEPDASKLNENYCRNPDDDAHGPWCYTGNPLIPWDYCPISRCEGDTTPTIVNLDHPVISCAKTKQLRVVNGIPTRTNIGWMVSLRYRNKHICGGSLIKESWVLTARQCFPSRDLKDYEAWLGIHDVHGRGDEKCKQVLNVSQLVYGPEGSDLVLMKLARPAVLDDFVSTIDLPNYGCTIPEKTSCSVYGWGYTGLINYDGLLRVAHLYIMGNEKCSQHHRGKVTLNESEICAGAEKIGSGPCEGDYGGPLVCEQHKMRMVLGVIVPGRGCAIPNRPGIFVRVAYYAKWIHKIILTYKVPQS
Chain of dog serum albumin (P49822 25-608 limits assumed): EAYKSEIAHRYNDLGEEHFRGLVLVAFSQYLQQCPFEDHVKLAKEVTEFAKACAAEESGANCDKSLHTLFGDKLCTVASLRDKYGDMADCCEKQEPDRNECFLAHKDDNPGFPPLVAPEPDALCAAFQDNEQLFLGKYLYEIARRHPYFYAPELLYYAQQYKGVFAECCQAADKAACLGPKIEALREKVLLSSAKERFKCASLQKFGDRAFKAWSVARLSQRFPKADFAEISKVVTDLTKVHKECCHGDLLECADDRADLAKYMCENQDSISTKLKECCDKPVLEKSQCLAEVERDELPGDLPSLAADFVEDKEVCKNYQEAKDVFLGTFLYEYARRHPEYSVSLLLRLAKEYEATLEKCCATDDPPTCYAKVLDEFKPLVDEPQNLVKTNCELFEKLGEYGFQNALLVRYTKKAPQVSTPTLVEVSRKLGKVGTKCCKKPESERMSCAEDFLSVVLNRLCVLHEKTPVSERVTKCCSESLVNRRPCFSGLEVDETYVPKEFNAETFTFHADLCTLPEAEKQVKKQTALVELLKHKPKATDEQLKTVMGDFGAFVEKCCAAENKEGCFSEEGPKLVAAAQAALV
T4 sequence (P02768 25-609 limits assumed): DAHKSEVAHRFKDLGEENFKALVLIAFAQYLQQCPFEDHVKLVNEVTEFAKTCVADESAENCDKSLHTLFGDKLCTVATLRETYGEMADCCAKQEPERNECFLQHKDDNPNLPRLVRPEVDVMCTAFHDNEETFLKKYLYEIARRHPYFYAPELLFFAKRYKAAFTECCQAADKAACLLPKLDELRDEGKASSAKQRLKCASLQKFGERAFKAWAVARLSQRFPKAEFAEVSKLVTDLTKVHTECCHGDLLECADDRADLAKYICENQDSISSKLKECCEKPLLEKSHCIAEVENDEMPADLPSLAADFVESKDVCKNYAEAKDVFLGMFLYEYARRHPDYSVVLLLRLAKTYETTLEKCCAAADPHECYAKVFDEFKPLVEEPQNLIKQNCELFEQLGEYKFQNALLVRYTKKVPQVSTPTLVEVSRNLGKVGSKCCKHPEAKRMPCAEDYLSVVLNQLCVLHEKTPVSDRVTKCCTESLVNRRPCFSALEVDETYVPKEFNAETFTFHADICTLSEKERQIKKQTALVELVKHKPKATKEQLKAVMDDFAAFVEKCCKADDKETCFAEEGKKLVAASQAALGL
Chain of rat serum albumin (P02770 25-608 limits assumed): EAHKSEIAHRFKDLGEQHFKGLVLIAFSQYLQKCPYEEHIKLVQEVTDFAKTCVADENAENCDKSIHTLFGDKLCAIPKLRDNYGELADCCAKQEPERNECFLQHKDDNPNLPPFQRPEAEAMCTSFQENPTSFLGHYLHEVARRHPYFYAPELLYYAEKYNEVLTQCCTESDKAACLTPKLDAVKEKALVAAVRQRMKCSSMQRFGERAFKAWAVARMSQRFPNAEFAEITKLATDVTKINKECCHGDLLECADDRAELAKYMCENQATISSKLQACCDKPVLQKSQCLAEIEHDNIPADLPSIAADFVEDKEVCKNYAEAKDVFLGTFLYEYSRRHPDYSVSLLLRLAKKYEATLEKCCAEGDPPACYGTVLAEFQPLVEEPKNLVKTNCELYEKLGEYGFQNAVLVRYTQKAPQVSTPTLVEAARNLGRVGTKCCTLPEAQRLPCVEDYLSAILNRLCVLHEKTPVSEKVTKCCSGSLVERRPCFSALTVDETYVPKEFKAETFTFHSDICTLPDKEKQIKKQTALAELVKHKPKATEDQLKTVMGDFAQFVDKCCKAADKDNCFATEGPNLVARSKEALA
Chain of mouse HGF (Q08048 33-728 limits assumed): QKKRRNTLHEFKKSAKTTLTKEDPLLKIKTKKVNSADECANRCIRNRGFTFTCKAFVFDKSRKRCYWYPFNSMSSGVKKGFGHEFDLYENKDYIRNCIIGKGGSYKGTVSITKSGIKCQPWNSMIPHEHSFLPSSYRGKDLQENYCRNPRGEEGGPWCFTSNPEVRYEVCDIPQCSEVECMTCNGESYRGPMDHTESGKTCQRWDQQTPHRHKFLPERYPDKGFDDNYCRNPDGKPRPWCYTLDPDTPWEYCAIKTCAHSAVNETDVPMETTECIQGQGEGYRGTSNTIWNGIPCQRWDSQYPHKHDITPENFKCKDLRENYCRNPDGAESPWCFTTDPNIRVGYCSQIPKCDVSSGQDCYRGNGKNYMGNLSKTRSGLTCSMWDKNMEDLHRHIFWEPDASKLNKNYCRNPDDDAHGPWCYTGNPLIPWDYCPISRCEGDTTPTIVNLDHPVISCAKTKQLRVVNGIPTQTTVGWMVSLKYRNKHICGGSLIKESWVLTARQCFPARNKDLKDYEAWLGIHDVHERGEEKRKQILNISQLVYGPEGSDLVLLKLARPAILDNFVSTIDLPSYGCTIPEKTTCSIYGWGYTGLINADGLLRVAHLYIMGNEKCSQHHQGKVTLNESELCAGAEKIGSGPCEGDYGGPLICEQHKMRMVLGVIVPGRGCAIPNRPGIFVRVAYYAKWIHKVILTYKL
T6 sequence (P01127 82-190 limits assumed, chain 2 of 2, other chains not shown): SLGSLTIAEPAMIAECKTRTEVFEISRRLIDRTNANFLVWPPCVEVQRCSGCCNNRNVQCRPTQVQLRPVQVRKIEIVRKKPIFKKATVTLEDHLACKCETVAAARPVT
Chain of cynomolgus monkey serum albumin (A2V9Z4 25-608 limits assumed): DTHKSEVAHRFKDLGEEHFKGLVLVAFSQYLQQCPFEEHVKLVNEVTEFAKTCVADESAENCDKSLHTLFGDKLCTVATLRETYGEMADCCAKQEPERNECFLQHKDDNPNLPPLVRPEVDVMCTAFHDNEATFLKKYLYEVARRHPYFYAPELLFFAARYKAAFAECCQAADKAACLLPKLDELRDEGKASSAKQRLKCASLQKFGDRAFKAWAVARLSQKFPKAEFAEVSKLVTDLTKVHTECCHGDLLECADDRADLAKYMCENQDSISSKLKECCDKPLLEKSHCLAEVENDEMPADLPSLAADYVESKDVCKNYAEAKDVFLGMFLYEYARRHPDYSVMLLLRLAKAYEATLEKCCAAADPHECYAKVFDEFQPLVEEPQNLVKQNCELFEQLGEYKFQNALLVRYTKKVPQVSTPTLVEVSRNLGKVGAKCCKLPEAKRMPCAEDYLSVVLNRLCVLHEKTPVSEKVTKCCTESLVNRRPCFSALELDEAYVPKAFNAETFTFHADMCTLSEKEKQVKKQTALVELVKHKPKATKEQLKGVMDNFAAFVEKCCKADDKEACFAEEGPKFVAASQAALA

## B1
Human HGF [1]
  binding result: no binding (tested: 100 nM)

B2: Protein #134 (designed binder)
chain: GSDLGKKLLEAARAGQDDEVRELLKAGADVNAKDYFSHTPLHLAARNGHLKIVEVLLKAGADVNAKDFAGKTPLHLAANEGHLEIVEVLLKAGADVNAQDIFGKTPADIAADAGHEDIAEVLQKAAGSPTPTPTTPTPTPTTPTPTPTGSDLGKKLLEAARAGQDDEVRILLKAGADVNAKDRYGDTPLHLAADIGHLEIVEVLLKAGADVNAEDYFGNTPLHLAASYGHLEIVEVLLKAGADVNAKDDYGNTPLHLAANTGHLEIVEVLLKAGADVNAQDKSGKTPADLAADAGHEDIAEVLQKAAGSPTPTPTTPTPTPTTPTPTPTGSDLDKKLLEAARAGQDDEVRILLKAGADVNAKDSTGWTPLHLAAPWGHPEIVEVLLKAGADVNAKDFQGWTPLHLAAAAGHLEIVEVLLKAGADVNAQDKSGKTPADLAADAGHEDIAEVLQKAAGSPTPTPTTPTPTPTTPTPTPTGSDLGKKLLEAARAGQDDEVRELLKAGADVNAKDYFSHTPLHLAARNGHLKIVEVLLKAGADVNAKDFAGKTPLHLAANEGHLEIVEVLLKAGADVNAQDIFGKTPADIAADAGHEDIAEVLQKAA
notes: Four designed ankyrin repeat domains (serum albumin, HGF, VEGF-A, serum albumin); one molecule is used here
Human VEGF-A [2]
  Inhibition of VEGF-A-induced HUVEC proliferation, IC50: 5.7 ng/ml and 91.3 pM
  inhibition of proliferation of HUVECs, IC50: 0.1 to 0.15 nM
Human HGF [3]
  Inhibition of cMet phosphorylation in A549 cells, IC50: 0.184 nM
  inhibition of cMet phosphorylation in A549 cells, IC50: < 1 nM
Human VEGF-A [4]
  EC50: 0.024 nM
Mouse serum albumin
  EC50: 0.015 nM
Rat serum albumin
  EC50: 0.017 nM
Dog serum albumin
  EC50: 0.023 nM
Mouse VEGF-A
  EC50: 0.021 nM
Rat VEGF-A
  EC50: 0.022 nM
Human HGF [5]
  EC50: 0.024 nM
Cynomolgus monkey HGF
  EC50: 0.04 nM
Mouse HGF
  EC50: 0.045 nM
Human serum albumin
  EC50: 0.013 nM
[6]
  EC50: 0.017 nM
Human VEGF-A [7]
  EC50: 0.024 nM
Human VEGF-C
  binding result: no binding (tested: 100 nM to 0.01 pM)
Human PDGF-AB
  binding result: no binding (tested: 100 nM to 0.01 pM)
Human HGF [8]
  IC50: 0.92 nM
Human VEGF-A [9]
  IC50: < 0.01 nM
[10]
  IC50: 0.6 nM
Human VEGF-A [11]
  IC50: 0.0045 nM
